Data on two molecules can be found in patent US20210087270A1 (INNATE PHARMA, published 2021).

Test [1] deals with T1, human KIR3DL2 (CD158k), wild type, at the cell surface (human, UniProt P43630 22-455).
T1 construct: also called WTaKIR3DL2; un-mutated wild type KIR3DL2
In words: flow cytometry on live HUT78 cells, 4 h at 37°C in RPMI10%, detection with anti-human-Fc PE, median of fluorescence. The method, then: (§1) This study aimed to evaluate the impact of staining conditions on 2B12 labelling of KIR3DL2-expressing cells, gated on total cells, at 4° C. or 37° C., and with incubation times of 2 hours, 4 hours or 24 hours. Briefly, 100,000 HUT78 cells per well were incubated with a dose range of 2B12 antibody starting from 0.0005 μg/ml to 30 μg/ml (serial dilution 1/3 in complete medium). The protocol used was as follows: incubation 2H; 4H and overnight at 4° C. and 37°; staining in RPMI 10% with or without PFA fixation; 2 washes in SB (150 μl/w); addition of anti-human-Fc PE for 30 min at 4° C.; 2 washes in SB (100 μl/w); and detection using FACS CANTO II.
In general terms: In flow cytometry, cells or beads pass a laser one at a time.

For test [2], the target named is T1, human KIR3DL2 (CD158k), wild type, at …. Description: panel Free KIR3DL2 - 2B12-PE: flow cytometry on HUT78 cells after 1 h at 37°C with unlabelled 2B12; loss of free KIR3DL2 detected with 2B12-PE at 10 µg/ml, the concentration axis is in µg/ml. The method, then: (§2) This study aimed to evaluate the dynamics of KIR3DL2 receptor expression by observing the amount of total, free and 2B12-bound KIR3DL2 after different periods of incubation with antibody 2B12. Briefly, HUT78 cells (50,000 cells/well) were incubated for 1h, 24h or 48h at 37° C. in complete medium with 2B12 (human IgG1), dose range starting from 10 μg/ml (decreasing), 1/3 serial dilution, 11 concentrations, or with isotype control (IC), dose range starting (decreasing) from 10 μg/ml, 1/3 serial dilution, 11 concentrations. Dose ranges were made in triplicate in order to perform 3 staining conditions: [0323] Bound KIR3DL2 (30 min at 4° C.): GaH IgG Fc-PE, [0324] Free KIR3DL2+total KIR3DL2 (1h at 4° C.): 2B12-PE (10 μg/ml)+mAb2-APC (non-competing anti-KIR3DL2) (10 μg/ml), [0325] Total KIR3DL2 (1h+30 min at 4° C.): 2B12 (10 μg/ml)+GaH IgG Fc-PE.

For test [3] the target is unchanged. In words: flow cytometry on HUT78 cells after 20 h at 37°C; bound antibody detected with goat anti-human IgG Fc-PE (MdFI GaH-PE); the box prints no unit, the concentration axis is in µg/ml. The procedure: (§3) This study aimed to evaluate the impact of a 20 hour incubation with antibody 2B12 on cell surface KIR3DL2 level by observing the amount of bound 2B12 (human IgG1), free (non-antibody bound) cell surface KIR3DL2 polypeptide, and total cell surface KIR3DL2 polypeptide. Briefly, HUT78 (100,000 cells/well) were incubated for 20h at 37° C. with a dose range of 2B12 antibody starting from (decreasing) 8.88 μg/ml, 1/3 serial dilution, 11 concentrations. Dose ranges were made in duplicate in order to perform the following 2 staining conditions: [0317] Total KIR3DL2+bound KIR3DL2 (GaH IgG Fc-PE+mAb2-APC (a non-competing anti-KIR3LD2 mAb) (10 μg/ml) [0318] Free KIR3DL2: 2B12-PE (10 μg/ml).
(§4) Staining was performed at 4° C. in staining buffer for 1h and analyzed with a FACS Canto 11 HTS. The dark line/squares represents antibody 2B12 while the light line/circles represents isotype control. It can be seen that free KIR3DL2 receptors can be detected when incubating cells with 10 μg/ml of 2B12-PE and detecting free receptors with non-competing anti-KIR3DL2 antibody. It can be seen that 2B12-bound KIR3DL2 receptors can be detected by incubating cells with goat anti-human IgG Fc-PE secondary Ab. Both read-outs were correlated, with similar EC₅₀. […]

Test [4] has the same target. In words: panel Free KIR3DL2 - 2B12-PE: flow cytometry on HUT78 cells after 24 h at 37°C with unlabelled 2B12; loss of free KIR3DL2 detected with 2B12-PE at 10 µg/ml, the concentration axis is in µg/ml. The procedure:
as §2

Test [5] shares this target. In words: cell-based or functional assay.
For test [6] the target is unchanged. Description: flow cytometry on HUT78 cells after 20 h at 37°C with unlabelled antibody; loss of free KIR3DL2 detected with PE-labelled 2B12 (IPH4102-PE on the sheet) at 10 µg/ml; the box prints no unit, the concentration axis is in µg/ml. The method, then:
as §3, §4

Test [7] has the same target. Description: flow cytometry on live HUT78 cells, 24 h at 37°C in RPMI10%, detection with anti-human-Fc PE, median of fluorescence. The procedure:
as §1

For test [8] the target is unchanged. In words: panel Free KIR3DL2 - 2B12-PE: flow cytometry on HUT78 cells after 48 h at 37°C with unlabelled 2B12; loss of free KIR3DL2 detected with 2B12-PE at 10 µg/ml, the concentration axis is in µg/ml. The method, then: as §2
The target is the same in test [9]. Description: flow cytometry on live HUT78 cells, 2 h at 37°C in RPMI10%, detection with anti-human-Fc PE, median of fluorescence. The procedure: as §1
For test [10] the target is unchanged. Description: flow cytometry on live HUT78 cells, 24 h at 4°C in RPMI10%, detection with anti-human-Fc PE, median of fluorescence. The method, then: as §1
Test [11] shares this target. In words: panel Bound KIR3DL2 - GaH-PE: flow cytometry on HUT78 cells after 48 h at 37°C with 2B12; bound antibody detected with goat anti-human IgG Fc-PE, the concentration axis is in µg/ml. The method, then:
as §2

The target is the same in test [12]. In words: panel Bound KIR3DL2 - GaH-PE: flow cytometry on HUT78 cells after 24 h at 37°C with 2B12; bound antibody detected with goat anti-human IgG Fc-PE, the concentration axis is in µg/ml. The method, then:
as §2

The target is the same in test [13]. Description: cell-based or functional assay. This is another data set of the same source.
Test [14] has as its target KIR3DL2 mutant having I60N and G62S substitutions (human, UniProt P43630 22-455). In words: binding to a series of KIR3DL2 mutants.
The target of test [15] is KIR3DL2 mutant having P14S, S15A and H23S substitutions (human, UniProt P43630 22-455). In words: binding to a series of KIR3DL2 mutants.
Sequence of KIR3DL2 mutant having P14S, S15A and H23S substitutions (P43630 other isoform, or with tags, fused parts or gaps P14S S15A H23S P14S S15A H23S): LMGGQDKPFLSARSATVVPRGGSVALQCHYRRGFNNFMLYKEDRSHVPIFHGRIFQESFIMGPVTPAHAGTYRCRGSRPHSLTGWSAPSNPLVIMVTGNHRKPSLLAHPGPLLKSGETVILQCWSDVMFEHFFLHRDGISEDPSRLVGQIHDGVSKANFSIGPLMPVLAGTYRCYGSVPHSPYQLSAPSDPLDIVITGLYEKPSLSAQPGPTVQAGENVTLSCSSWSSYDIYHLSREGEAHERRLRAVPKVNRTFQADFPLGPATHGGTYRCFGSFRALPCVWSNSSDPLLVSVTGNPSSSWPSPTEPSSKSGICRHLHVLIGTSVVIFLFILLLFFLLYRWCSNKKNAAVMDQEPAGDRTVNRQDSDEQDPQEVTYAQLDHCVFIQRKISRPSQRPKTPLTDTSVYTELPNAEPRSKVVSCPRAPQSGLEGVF
In a further test the target is T2, KIR3DL1 (CD158e1) (UniProt P43629 22-444, limits assumed).
T2 construct: also called closely related KIR3DL1
T2 sequence (P43629 22-444 limits assumed): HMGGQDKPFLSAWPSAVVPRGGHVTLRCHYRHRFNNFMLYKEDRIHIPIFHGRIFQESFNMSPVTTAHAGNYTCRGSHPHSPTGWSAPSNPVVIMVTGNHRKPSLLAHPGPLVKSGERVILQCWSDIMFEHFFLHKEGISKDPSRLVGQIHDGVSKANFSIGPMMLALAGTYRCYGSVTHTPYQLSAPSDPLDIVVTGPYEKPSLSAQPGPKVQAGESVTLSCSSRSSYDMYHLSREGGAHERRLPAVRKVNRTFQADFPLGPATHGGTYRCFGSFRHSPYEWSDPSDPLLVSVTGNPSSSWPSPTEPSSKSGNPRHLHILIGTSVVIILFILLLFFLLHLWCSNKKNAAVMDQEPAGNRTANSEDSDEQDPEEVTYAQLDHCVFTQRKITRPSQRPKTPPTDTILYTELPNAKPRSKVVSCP
In words: hybridoma screening (flow cytometry, incl. HEK-293T/KIR3DL1 Domain 0-eGFP). The method, then:
Antibodies which bind KIR3DL2 but not closely related KIR3DL1 were generated by immunizing mice with recombinant KIR3DL2-Fc fusion protein, described in US patent publication number US-2015-0232556-A1. Supernatant (SN) of the growing hybridomas were tested by flow cytometry on Sezary Syndrome cell lines (HUT78, COU-L) and HEK-293T/KIR3DL2 Domain 0-eGFP. Potentially interesting hybridomas selected from the initial screening were cloned by limiting dilution techniques in 96-wells plates. The secondary screen involved selection of hybridomas of interest by testing supernatants of the subclones by flow cytometry on HUT78, COU-L, HEK-293T/KIR3DL1 Domain 0-eGFP and HEK-293T/KIR3DL2 Domain 0-eGFP. Positive subclones were injected into mice to produce ascitis and antibodies of interest were purified before being tested in a Biacore assay using rec KIR3DL2 chips, followed by various assays formats based on binding to human KIR3DL2-expressing cells.

A word on the EC50 (read off the curve): it is the concentration needed to bring the measured effect to its halfway point. A lower EC50 (read off the curve) goes with a more potent agent. By EC50 is commonly meant the concentration needed to bring the measured effect to its halfway point. A high value points to lower potency in that assay.

T1 sequence (P43630 22-455 E158D): as the sequence (P43630 other isoform, or with tags, fused parts or gaps P14S S15A H23S P14S S15A H23S) above, with S14P, A15S, S23H counted along it
Sequence of KIR3DL2 mutant having I60N and G62S substitutions (P43630 other isoform, or with tags, fused parts or gaps I60N G62S I60N G62S): as the sequence (P43630 other isoform, or with tags, fused parts or gaps P14S S15A H23S P14S S15A H23S) above, with S14P, A15S, S23H, I60N, G62S counted along it

B1: antibody 2B12 (human IgG1) (antibody, V domains shown)
VH: QIQLVQSGPELKKPGETVRISCKASGYTFTTAGMQWVQKTPGKGLKWIGWINSHSGVPKYAEDFKGRFAFSLETSASTAYLQISTLKNEDTATYFCARGGDEGVMDYWGQGTSVTVS
VL: DIVMTQSHKFMSTSLGDRVSFTCKASQDVSTAVAWYQQKPGQSPKLLIYWTSTRHTGVPDRFTGSGSGTDYTLTISSVQAEDLALYYCQQHYSTPWTFGGGTKLEIK
notes: Used as human IgG1 in the HUT78 staining studies (Parts 1-3); also called 2B12-PE
Consider B1, for which the 50% effective concentration (EC50 (read off the curve)) in test [1] was approximately 0.09 mg/L; in test [7] it was approximately 0.07 mg/L; in test [9] it was approximately 0.1 mg/L; in test [10] it was approximately 0.04 mg/L. Also, the EC50 in [2] amounted to 0.104 mg/L; in test [3] it was 0.059 mg/L; in test [4] it was 0.0438 mg/L; in [6], 0.0588 mg/L; in [8], 0.0178 mg/L; in test [11] it was 0.0163 mg/L. Moreover, the response in test [12] was half-maximal at 0.0566 mg/L (EC50). Also, the “EC50 of the increase of total cell-surface KIR3DL2 on HUT78 cells after 20 h at 37°C, detected with mAb2-APC (axis: MdFI 13E4-APC)” value in test [5] worked out at 0.0789 mg/L. Also, in test [13], the “EC50 of the increase of total cell-surface KIR3DL2 on HUT78 cells after 24 h at 37°C, panel Total KIR3DL2 - 2B12+GaH-PE” value is 0.103 mg/L. Besides, the “EC50 of the increase of total cell-surface KIR3DL2 on HUT78 cells after 24 h at 37°C, panel Total KIR3DL2 - mAb2-APC” value in [13] was 0.0599 mg/L. In addition, in test [13], the “EC50 of the increase of total cell-surface KIR3DL2 on HUT78 cells after 48 h at 37°C, panel Total KIR3DL2 - 2B12+GaH-PE” value was 0.0454 mg/L. For the same molecule, the “EC50 of the increase of total cell-surface KIR3DL2 on HUT78 cells after 48 h at 37°C, panel Total KIR3DL2 - mAb2-APC” value in test [13] worked out at 0.042 mg/L.

B2: antibody 2B12 (parental, as generated in Example 1) (antibody, V domains shown)
VH: QIQLVQSGPELKKPGETVRISCKASGYTFTTAGMQWVQKTPGKGLKWIGWINSHSGVPKYAEDFKGRFAFSLETSASTAYLQISTLKNEDTATYFCARGGDEGVMDYWGQGTSVTVS
VL: DIVMTQSHKFMSTSLGDRVSFTCKASQDVSTAVAWYQQKPGQSPKLLIYWTSTRHTGVPDRFTGSGSGTDYTLTISSVQAEDLALYYCQQHYSTPWTFGGGTKLEIK
notes: From mouse hybridoma; It was detected with goat anti-mouse antibody in the internalization assay
In the case of B2, the binding result in [14] was “no binding”; in test [15] it was “binds”; in the test with KIR3DL1 (CD158e1) it was “no binding”.
